Source: patent publication US20060104978A1, “Methods and compositions for PDGF-C activation and inhibition” (LUDWIG INSTITUTE FOR CANCER RESEARCH, priority 2003, published 2006)

B1: α2-anti-plasmin: specific plasmin inhibitor (#4030, American Diagnostica Inc.) (protein, UniProt P08697 40-491, looked up)
Alpha-2-antiplasmin: NQEQVSPLTLLKLGNQEPGGQTALKSPPGVCSRDPTPEQTHRLARAMMAFTADLFSLVAQTSTCPNLILSPLSVALALSHLALGAQNHTLQRLQQVLHAGSGPCLPHLLSRLCQDLGPGAFRLAARMYLQKGFPIKEDFLEQSEQLFGAKPVSLTGKQEDDLANINQWVKEATEGKIQEFLSGLPEDTVLLLLNAIHFQGFWRNKFDPSLTQRDSFHLDEQFTVPVEMMQARTYPLRWFLLEQPEIQVAHFPFKNNMSFVVLVPTHFEWNVSQVLANLSWDTLHPPLVWERPTKVRLPKLYLKHQMDLVATLSQLGLQELFQAPDLRGISEQSLVVSGVQHQSTLELSEVGVEAAAATSIAMSRMSLSSFSVNRPFLFFIFEDTTGLPLFVGSVRNPNPSAPRELKEQQDSPGNKDFLQSLKGFPRGDKLFGPDLKLVPPMEEDYPQFGSPK
B2: PDCUBPC: chimeric PDGF-C carrying the CUB domain from PDGF-D and the hinge region and growth factor domain of PDGF-C (protein)
chain: RDTSATPQSASIKALRNANLRRDESNHLTDLYRRDETIQVKGNGYVQSPRFPNSYPRNLLLTWRLHSQENTRIQLVFDNQFGLEEAENDICRYDFVEVEDISETSTIIRGRWCGHKEVPPRIKSRTNQIKITFKSDDYFVAKPGFKIYYSLLEDQFTEAVSPSVLPPSALPLDLLNNAITAFSTLEDLIRYLEPERWQLDLEDLYRPTWQLLGKAFVFGRKSRVVDLNLLTEEVRLYSCTPRNFSVSIREELKRTDTIFWPGCLLVKRCGGNCACCLHNCNECQCVPSKVTKKYHEVLQLRPKTGVRGLHKSLTDVALEHHEECDCVCRGSTGG

Assays:
[1] = target: T1, latent PDGF-CC (Homo sapiens, UniProt Q9NRA1); assay: Cotransfection assay in COS-1 cells: protease plus full-length PDGF-C; assay type: cell-based; details: α2-anti-plasmin 10 ng-1 μg added to the cotransfection medium for 24 hours
T1 construct: cotransfected with full-length PDGF-C (Li et al, 2000), full-length PDGF-D (Bergsten et al, 2001); expressed in transfected cells; host or cells: COS-1 cells
T1 sequence (Q9NRA1 23-345): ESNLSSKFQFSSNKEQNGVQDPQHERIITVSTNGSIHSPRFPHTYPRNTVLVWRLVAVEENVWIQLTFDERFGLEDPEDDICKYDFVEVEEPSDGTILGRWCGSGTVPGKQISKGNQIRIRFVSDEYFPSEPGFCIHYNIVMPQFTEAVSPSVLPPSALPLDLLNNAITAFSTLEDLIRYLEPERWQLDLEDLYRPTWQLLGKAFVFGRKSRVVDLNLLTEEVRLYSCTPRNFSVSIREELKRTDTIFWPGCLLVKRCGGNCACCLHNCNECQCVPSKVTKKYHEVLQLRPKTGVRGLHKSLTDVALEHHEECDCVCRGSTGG
Text: A cotransfection assay was established to identify serine proteases able to cleave and activate latent PDGF-CC. Expression plasmids encoding the relevant enzymes and full-length PDGF-C were cotransfected into COS-1 cells, and aliquots of the conditioned media from the transfectants were subjected to SDS-PAGE and immunoblotting using antibodies to the growth factor domain of PDGF-C. […] As a specificity control, the ability of tPA and NT to use full-length PDGF-DD as the substrate in the cotransfection assay was analysed. […] One difference in the latter results, as compared with the results from the cotransfection assay, was that purified tPA generated a second intermediate species of 32 kDa using latent PDGF-CC as the substrate. It is possible that this intermediate is the result of digestion by plasmin contamination in the tPA preparation, since the size of the fragment is similar to that of plasmincleaved PDGF-CC previously reported (Li et al, 2000). […]
To test the endogenous expression of PDGF-CC, subconfluent AG1523 cells and primary fibroblast cultures were cultured in serum-free DMEM overnight. […] In the case of the primary cultures, total protein concentration was measured and normalized (Bradford, 1976). […]

[2] = test system: tPA; assay: Cotransfection assay in COS-1 cells: PDGF-CC forms and mutants coexpressed with tPA; assay type: cell-based, human; details: COS-1 cotransfection with tPA, immunoblot; cleavage site mutant made from mouse PDGF-C cDNA
tPA, sequence (P00750 36-562): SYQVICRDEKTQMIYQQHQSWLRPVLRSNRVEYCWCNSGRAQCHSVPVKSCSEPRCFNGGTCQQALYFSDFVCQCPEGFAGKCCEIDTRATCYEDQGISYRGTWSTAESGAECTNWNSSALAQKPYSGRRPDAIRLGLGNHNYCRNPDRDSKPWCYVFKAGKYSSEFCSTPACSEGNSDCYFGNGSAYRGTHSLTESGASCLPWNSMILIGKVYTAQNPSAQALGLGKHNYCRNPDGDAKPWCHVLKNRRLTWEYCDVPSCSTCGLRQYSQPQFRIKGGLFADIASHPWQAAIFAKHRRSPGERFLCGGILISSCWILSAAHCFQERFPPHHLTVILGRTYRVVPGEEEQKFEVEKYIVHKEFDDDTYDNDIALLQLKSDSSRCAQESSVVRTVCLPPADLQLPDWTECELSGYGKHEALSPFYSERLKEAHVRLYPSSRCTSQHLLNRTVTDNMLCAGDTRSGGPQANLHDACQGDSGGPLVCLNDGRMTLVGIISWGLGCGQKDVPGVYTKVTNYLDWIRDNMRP
Text: The structural requirements for recognition of full-length PDGF-CC as a substrate for tPA were mapped by analysis of several mutated forms of PDGF-CC using the co-transfection assay. The mutants of PDGF-CC included a chimeric form of PDGF-C carrying the CUB domain from PDGF-D and the hinge region and growth factor domain of PDGF-C (mutant PDCUBPC), and several truncation mutants lacking the CUB domain and increasing parts of the hinge region (schematically illustratrated in FIG. 6A). All mutants were properly expressed in transfected COS-1 cells, formed disulfide-linked dimers (data not shown), and were efficiently secreted, except truncation mutant Δ190 that was expressed at a lower level in the conditioned medium (FIG. 6B).
A conserved site of four amino acids containing three basic amino-acid residues (amino-acid residues -R-K-S-R-) was previously identified as a potential site for proteolytic activation of latent PDGF-CC (Li et al, 2000). […]
To test the endogenous expression of PDGF-CC, subconfluent AG1523 cells and primary fibroblast cultures were cultured in serum-free DMEM overnight. […] In the case of the primary cultures, total protein concentration was measured and normalized (Bradford, 1976). […] PDGF-C and PDGF-D were detected by immunoblotting using affinity-purified polyclonal rabbit antibodies against PDGF-C (Li et al, 2000) and PDGF-D (Bergsten et al, 2001), respectively. […]

Molecule | effect on release of core PDGF-C by tPA [1] | cleavage of the PDGF-CC form by coexpressed tPA [2]
B1 | had no effect on the release of core PDGF-C by tPA | –
B2 | – | neither chimeric PDCUBPC, nor the truncation mutants lacking the CUB domain, were efficiently cleaved
